Test results: article PMC10716038, “Talin and kindlin use integrin tail allostery and direct binding to activate integrins” (Nature Structural & Molecular Biology, 2023)
Values joined by “and” are separate entries in the source; they are usually repeats but may differ in a detail not shown here. Identical values can stand only once. No end group written: not given here.

Experiments:
Assay in all cases: MST; unlabelled protein titrated to 50-200 nM ATTO 488-labelled β-CT peptide, no third protein; 20 mM Tris pH 7.5, 200 mM NaCl, 1 mM TCEP, 0.05% Tween-20; Kd of individual titrations (in S0002 mean and sd, n = 2)
Details in all cases: both partners purified
[1] = target: T1, talin-1 head domain (THD1) (UniProt P26039 1-405)
T1 construct: talin-1 (TLN1) head domain (THD), residues 1-405; murine TLN1 cDNA is named only for the cell lines; also called WT; source: E. coli (DE3) Rosetta 2, purified (IMAC, SEC); not shown: His10-SUMO, N-terminal, cleaved
T1 sequence (P26039 1-405): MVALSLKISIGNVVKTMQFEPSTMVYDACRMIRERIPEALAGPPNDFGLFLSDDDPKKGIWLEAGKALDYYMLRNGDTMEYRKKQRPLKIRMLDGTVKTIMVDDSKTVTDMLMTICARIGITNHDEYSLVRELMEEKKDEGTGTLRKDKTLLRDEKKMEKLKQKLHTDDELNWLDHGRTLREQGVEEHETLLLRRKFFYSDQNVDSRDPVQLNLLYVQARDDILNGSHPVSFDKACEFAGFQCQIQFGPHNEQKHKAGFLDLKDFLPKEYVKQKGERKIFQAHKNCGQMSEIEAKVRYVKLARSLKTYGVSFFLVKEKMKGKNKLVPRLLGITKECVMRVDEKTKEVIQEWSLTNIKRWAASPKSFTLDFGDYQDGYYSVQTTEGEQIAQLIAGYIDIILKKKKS

THD1 K402A = target: T2, THD1 K402A (UniProt P26039 1-405, K402A)
T2 construct: talin-1 (TLN1) head domain, residues 1-405, K402A; source: E. coli (DE3) Rosetta 2, purified (IMAC, SEC); not shown: His10-SUMO, N-terminal, cleaved
T2 sequence (P26039 1-405 K402A): as the sequence (P26039 1-405) above, with K402A counted along it

THD1 L400A = target: T3, THD1 L400A (UniProt P26039 1-405, L400A)
T3 construct: talin-1 (TLN1) head domain, residues 1-405, L400A; source: E. coli (DE3) Rosetta 2, purified (IMAC, SEC); not shown: His10-SUMO, N-terminal, cleaved
T3 sequence (P26039 1-405 L400A): as the sequence (P26039 1-405) above, with L400A counted along it

THD1 Δ401-405 = target: T4, THD1 Δ401-405 (UniProt P26039 1-405, Δ401-405)
T4 construct: source: E. coli (DE3) Rosetta 2, purified (IMAC, SEC); not shown: His10-SUMO, N-terminal, cleaved
T4 sequence (P26039 1-400, stated change not applied): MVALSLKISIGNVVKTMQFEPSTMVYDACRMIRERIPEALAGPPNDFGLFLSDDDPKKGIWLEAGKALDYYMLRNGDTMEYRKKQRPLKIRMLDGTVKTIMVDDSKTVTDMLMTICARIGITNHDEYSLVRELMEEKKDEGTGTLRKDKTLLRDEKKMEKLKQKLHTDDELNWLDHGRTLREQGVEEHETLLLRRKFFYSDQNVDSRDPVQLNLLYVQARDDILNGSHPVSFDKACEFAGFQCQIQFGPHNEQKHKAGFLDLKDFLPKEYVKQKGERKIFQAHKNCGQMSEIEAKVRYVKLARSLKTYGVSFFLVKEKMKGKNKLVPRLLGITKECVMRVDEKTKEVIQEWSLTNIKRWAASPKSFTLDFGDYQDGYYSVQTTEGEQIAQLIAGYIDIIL

THD1 K403A = target: T5, THD1 K403A (UniProt P26039 1-405, K403A)
T5 construct: talin-1 (TLN1) head domain, residues 1-405, K403A; source: E. coli (DE3) Rosetta 2, purified (IMAC, SEC); not shown: His10-SUMO, N-terminal, cleaved
T5 sequence (P26039 1-405 K403A): as the sequence (P26039 1-405) above, with K403A counted along it

THD1 I396A = target: T6, THD1 I396A (UniProt P26039 1-405, I396A)
T6 construct: talin-1 (TLN1) head domain, residues 1-405, I396A; source: E. coli (DE3) Rosetta 2, purified (IMAC, SEC); not shown: His10-SUMO, N-terminal, cleaved
T6 sequence (P26039 1-405 I396A): as the sequence (P26039 1-405) above, with I396A counted along it

THD1 I398A = target: T7, THD1 I398A (UniProt P26039 1-405, I398A)
T7 construct: talin-1 (TLN1) head domain, residues 1-405, I398A; source: E. coli (DE3) Rosetta 2, purified (IMAC, SEC); not shown: His10-SUMO, N-terminal, cleaved
T7 sequence (P26039 1-405 I398A): as the sequence (P26039 1-405) above, with I398A counted along it

THD1 I399A = target: T8, THD1 I399A (UniProt P26039 1-405, I399A)
T8 construct: talin-1 (TLN1) head domain, residues 1-405, I399A; source: E. coli (DE3) Rosetta 2, purified (IMAC, SEC); not shown: His10-SUMO, N-terminal, cleaved
T8 sequence (P26039 1-405 I399A): as the sequence (P26039 1-405) above, with I399A counted along it

THD1 K402E = target: T9, THD1 K402E (UniProt P26039 1-405, K402E)
T9 construct: talin-1 (TLN1) head domain, residues 1-405, K402E; source: E. coli (DE3) Rosetta 2, purified (IMAC, SEC); not shown: His10-SUMO, N-terminal, cleaved
T9 sequence (P26039 1-405 K402E): as the sequence (P26039 1-405) above, with K402E counted along it

Kd [1]: 127 µM and 115 µM and 93.9 µM and 85.5 µM | Kd (THD1 K402A): 45 µM | Kd (THD1 L400A): 190 µM | Kd (THD1 Δ401-405): 250 µM | Kd (THD1 K403A): 68.1 µM | Kd (THD1 I396A): 579 µM | Kd (THD1 I398A): 141 µM | Kd (THD1 I399A): 55.2 µM | Kd (THD1 K402E): 37.8 µM and 35.5 µM and 32.5 µM
B1: ATTO 488-labeled integrin β3 cytoplasmic tail (488–β3-CT) (peptide, UniProt O54890 741-787, looked up)
peptide: {ATTO 488}-KLLITIHDRKEFAKFEEERARAKWDTANNPLYKEATSTFTNITYRGT
notes: integrin β3 cytoplasmic tail (β3-CT); source: synthetic peptide (MPIB Core Facility)
